Results: patent publication US20260201033A1 (LTZ THERAPEUTICS, published 2026)

T1: CD79b on Ramos cells and on endogenous B cells of human PBMCs (human, UniProt P40259 29-229)
T1 sequence (looked up): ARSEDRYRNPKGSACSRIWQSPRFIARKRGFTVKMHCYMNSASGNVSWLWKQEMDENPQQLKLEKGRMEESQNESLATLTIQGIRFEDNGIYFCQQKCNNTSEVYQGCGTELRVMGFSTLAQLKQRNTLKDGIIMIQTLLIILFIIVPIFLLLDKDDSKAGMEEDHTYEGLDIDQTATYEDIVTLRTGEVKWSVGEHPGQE


How the values were obtained:
Assay in all cases: cell-based or functional assay
[1] = target: T1, CD79b on Ramos cells and on endogenous …
[2] = target: T1, CD79b on Ramos cells and on endogenous …; remark: listed apart in the source
[3] = target: T1, CD79b on Ramos cells and on endogenous …; remark: listed apart in the source
[4] = target: T1, CD79b on Ramos cells and on endogenous …; remark: listed apart in the source
[5] = target: T1, CD79b on Ramos cells and on endogenous …; remark: listed apart in the source
[6] = target: T1, CD79b on Ramos cells and on endogenous …; remark: listed apart in the source

Binder | IC50 (nM), Ramos cell killing by M0 macrophages, Donor 022 [1] | IC50 (nM), Ramos cell killing by M0 macrophages, Donor 431 [1] | IC50 (nM), Ramos cell killing by M1 macrophages, Donor 431 [2] | IC50 (nM), Ramos cell killing by M2 macrophages, Donor 022 [3] | IC50 (nM), Ramos cell killing by M2 macrophages, Donor 431 [3] | IC50 (nM), Ramos cell killing by PBMCs (test 2), Donor 431 [4] | IC50 (nM), Ramos cell killing by PBMCs (test 3), Donor 281 [5] | IC50 (nM), Ramos cell killing by PBMCs (test 3), Donor 367 [5] | IC50 (nM), killing of endogenous B cells by PBMCs, Donor 367 [6] | IC50 (nM), killing of endogenous B cells by PBMCs, Donor 431 [6] | IC50 (nM), Ramos cell killing by M0 macrophages, Donor 100 [1] | IC50 (nM), Ramos cell killing by M1 macrophages, Donor 100 [2] | IC50 (nM), Ramos cell killing by M2 macrophages, Donor 100 [3] | IC50 (nM), Ramos cell killing by M0 macrophages, Donor 233 [1] | IC50 (nM), Ramos cell killing by M2 macrophages, Donor 233 [3] | IC50 (nM), Ramos cell killing by PBMCs (test 3), Donor 022 [5] | IC50 (nM), killing of endogenous B cells by PBMCs, Donor 023 [6] | IC50 (nM), Ramos cell killing by PBMCs (test 2), Donor 234 [4] | IC50 (nM), killing of endogenous B cells by PBMCs, Donor 234 [6]
CD79b/5C7 (2+1 B) Fc-silenced (bispecific antibody, human IgG1, kappa, L234A L235A) heavy 1: EQQLVETGGGLIQPGGSLRLSCAASGFTINIDYWISWVRQAPGKGLEWIGIIDPGDGTTYFAIWVSGRFTISFDNSKNTVYLQMNSLRAEDTAVYFCVREFSASAYQYDLWGPGTLVTVSSASTKGPSVFPLAPSSKSTSGGTAALGCLVKDYFPEPVTVSWNSGALTSGVHTFPAVLQSSGLYSLSSVVTVPSSSLGTQTYICNVNHKPSNTKVDKKVEPKSCDKTHTCPPCPAPEAAGGPSVFLFPPKPKDTLMISRTPEVTCVVVDVSHEDPEVKFNWYVDGVEVHNAKTKPREEQYNSTYRVVSVLTVLHQDWLNGKEYKCKVSNKALGAPIEKTISKAKGQPREPQVCTLPPSRDELTKNQVSLSCAVKGFYPSDIAVEWESNGQPENNYKTTPPVLDSDGSFFLVSKLTVDKSRWQQGNVFSCSVMHEALHNRFTQKSLSLSPGK heavy 2: not shown light: ELVMTQSPATLSVSPGERATLSCRASEDIENYLAWYQQKPGQPPRLLIYRASTLSSGVPARFSGSGSGTEFTLTISSLQSEDFAVYYCQQGYRNSNVDNPFGGGTKVEIKRTVAAPSVFIFPPSDEQLKSGTASVVCLLNNFYPREAKVQWKVDNALQSGNSQESVTEQDSKDSTYSLSSTLTLSKADYEKHKVYACEVTHQGLSSPVTKSFNRGEC | 0.003 nM | 0.002 nM | 0.005 nM | 0.002 nM | 0.002 nM | 0.0155 nM | 0.0165 nM | 0.0685 nM | 0.0155 nM | 0.0155 nM |  |  |  |  |  |  |  |  | 
CD79b/5C7 (2+1 A) Fc-silenced (bispecific antibody, human IgG1, kappa, L234A L235A) heavy 1: EQQLVETGGGLIQPGGSLRLSCAASGFTINIDYWISWVRQAPGKGLEWIGIIDPGDGTTYFAIWVSGRFTISFDNSKNTVYLQMNSLRAEDTAVYFCVREFSASAYQYDLWGPGTLVTVSSASTKGPSVFPLAPSSKSTSGGTAALGCLVKDYFPEPVTVSWNSGALTSGVHTFPAVLQSSGLYSLSSVVTVPSSSLGTQTYICNVNHKPSNTKVDKKVEPKSCDGGGGSGGGGSGGGGSEQQLVETGGGLIQPGGSLRLSCAASGFTINIDYWISWVRQAPGKGLEWIGIIDPGDGTTYFAIWVSGRFTISFDNSKNTVYLQMNSLRAEDTAVYFCVREFSASAYQYDLWGPGTLVTVSSASTKGPSVFPLAPSSKSTSGGTAALGCLVKDYFPEPVTVSWNSGALTSGVHTFPAVLQSSGLYSLSSVVTVPSSSLGTQTYICNVNHKPSNTKVDKKVEPKSCDKTHTCPPCPAPEAAGGPSVFLFPPKPKDTLMISRTPEVTCVVVDVSHEDPEVKFNWYVDGVEVHNAKTKPREEQYNSTYRVVSVLTVLHQDWLNGKEYKCKVSNKALGAPIEKTISKAKGQPREPQVCTLPPSRDELTKNQVSLSCAVKGFYPSDIAVEWESNGQPENNYKTTPPVLDSDGSFFLVSKLTVDKSRWQQGNVFSCSVMHEALHNRFTQKSLSLSPGK heavy 2: not shown light: ELVMTQSPATLSVSPGERATLSCRASEDIENYLAWYQQKPGQPPRLLIYRASTLSSGVPARFSGSGSGTEFTLTISSLQSEDFAVYYCQQGYRNSNVDNPFGGGTKVEIKRTVAAPSVFIFPPSDEQLKSGTASVVCLLNNFYPREAKVQWKVDNALQSGNSQESVTEQDSKDSTYSLSSTLTLSKADYEKHKVYACEVTHQGLSSPVTKSFNRGEC | 0.003 nM |  |  | 0.003 nM |  |  |  |  |  |  | 0.002 nM | 0.001 nM | 0.001 nM |  |  |  |  |  | 
CD79b/5C7 (1+1 B) Fc-silenced (bispecific antibody, human IgG1, kappa, L234A L235A) heavy 1: EQQLVETGGGLIQPGGSLRLSCAASGFTINIDYWISWVRQAPGKGLEWIGIIDPGDGTTYFAIWVSGRFTISFDNSKNTVYLQMNSLRAEDTAVYFCVREFSASAYQYDLWGPGTLVTVSSASTKGPSVFPLAPSSKSTSGGTAALGCLVKDYFPEPVTVSWNSGALTSGVHTFPAVLQSSGLYSLSSVVTVPSSSLGTQTYICNVNHKPSNTKVDKKVEPKSCDKTHTCPPCPAPEAAGGPSVFLFPPKPKDTLMISRTPEVTCVVVDVSHEDPEVKFNWYVDGVEVHNAKTKPREEQYNSTYRVVSVLTVLHQDWLNGKEYKCKVSNKALGAPIEKTISKAKGQPREPQVCTLPPSRDELTKNQVSLSCAVKGFYPSDIAVEWESNGQPENNYKTTPPVLDSDGSFFLVSKLTVDKSRWQQGNVFSCSVMHEALHNRFTQKSLSLSPGK heavy 2: not shown light: ELVMTQSPATLSVSPGERATLSCRASEDIENYLAWYQQKPGQPPRLLIYRASTLSSGVPARFSGSGSGTEFTLTISSLQSEDFAVYYCQQGYRNSNVDNPFGGGTKVEIKRTVAAPSVFIFPPSDEQLKSGTASVVCLLNNFYPREAKVQWKVDNALQSGNSQESVTEQDSKDSTYSLSSTLTLSKADYEKHKVYACEVTHQGLSSPVTKSFNRGEC |  | 0.004 nM | 0.005 nM |  | 0.003 nM | 0.0329 nM | 0.0452 nM | 0.29 nM | 0.0329 nM | 0.0329 nM | 0.006 nM | 0.001 nM | 0.002 nM | 0.003 nM | 0.005 nM | 0.334 nM | 0.0833 nM |  | 
CD79b/5C7 (2+1 B) Fc-optimized (bispecific antibody, human IgG1, kappa) heavy 1: EQQLVETGGGLIQPGGSLRLSCAASGFTINIDYWISWVRQAPGKGLEWIGIIDPGDGTTYFAIWVSGRFTISFDNSKNTVYLQMNSLRAEDTAVYFCVREFSASAYQYDLWGPGTLVTVSSASTKGPSVFPLAPSSKSTSGGTAALGCLVKDYFPEPVTVSWNSGALTSGVHTFPAVLQSSGLYSLSSVVTVPSSSLGTQTYICNVNHKPSNTKVDKKVEPKSCDKTHTCPPCPAPELLAGPSVFLFPPKPKDTLMISRTPEVTCVVVDVSHEDPEVKFNWYVDGVEVHNAKTKPREEQYNSTYRVVSVLTVLHQDWLNGKEYKCKVSNKALPLPEEKTISKAKGQPREPQVYTLPPSRDELTKNQVSLSCAVKGFYPSDIAVEWESNGQPENNYKTTPPVLDSDGSFFLVSKLTVDKSRWQQGNVFSCSVMHEALHNHYTQKSLSLSPGK heavy 2: EQQLVETGGGLIQPGGSLRLSCAASGFTINIDYWISWVRQAPGKGLEWIGIIDPGDGTTYFAIWVSGRFTISFDNSKNTVYLQMNSLRAEDTAVYFCVREFSASAYQYDLWGPGTLVTVSSASTKGPSVFPLAPSSKSTSGGTAALGCLVKDYFPEPVTVSWNSGALTSGVHTFPAVLQSSGLYSLSSVVTVPSSSLGTQTYICNVNHKPSNTKVDKKVEPKSCDKTHTCPPCPAPELLAGPSVFLFPPKPKDTLMISRTPEVTCVVVDVSHEDPEVKFNWYVDGVEVHNAKTKPREEQYNSTYRVVSVLTVLHQDWLNGKEYKCKVSNKALPLPEEKTISKAKGQPREPQVYTLPPSRDELTKNQVSLWCLVKGFYPSDIAVEWESNGQPENNYKTTPPVLDSDGSFFLYSKLTVDKSRWQQGNVFSCSVMHEALHNHYTQKSLSLSPGKGGGGSGGGGSGGGGSDIQMTQSPSSLSASVGDRVTITCQASESVDRNNRLAWFQQKPGKPPKLLIYTTSTLASGVPSRFSGSGSGTDFTLTISSLQPEDVATYYCAGYRGAHTDGDAFGGGTKVEIKGGGGSGGGGSGGGGSGGGGSEQQLVESGGGLVKPGGSLRLSCAASGFSFSRSSYMCWVRQAPGKGLEWIGCLSVGDGHTYYASWAKGRFTISKDSAKNSVYLQMNSLRAEDTAVYFCARAPSYSGDGGHGYDLWGPGTLVTVSS light: ELVMTQSPATLSVSPGERATLSCRASEDIENYLAWYQQKPGQPPRLLIYRASTLSSGVPARFSGSGSGTEFTLTISSLQSEDFAVYYCQQGYRNSNVDNPFGGGTKVEIKRTVAAPSVFIFPPSDEQLKSGTASVVCLLNNFYPREAKVQWKVDNALQSGNSQESVTEQDSKDSTYSLSSTLTLSKADYEKHKVYACEVTHQGLSSPVTKSFNRGEC | 0.003 nM | 0.004 nM | 0.005 nM | 0.002 nM | 0.001 nM | 0.0104 nM | 0.0112 nM | 0.0186 nM | 0.104 nM | 0.104 nM |  |  |  |  |  |  |  | 0.0639 nM | 0.0207 nM
